Biological target: Toll-like Receptor 5 (UniProt O60602)
Assay: cell-based or functional assay

B1: ngSTF2.HA1-1His(PR8) (protein)
chain: AQVINTNSLSLLTQNNLQKSQSALGTAIERLSSGLRINSAKDDAAGQAIANRFTANIKGLTQASRNANDGISIAQTTEGALNEINNNLQRVRELAVQSAQSTNSQSDLDSIQAEITQRLNEIDRVSGQTQFNGVKVLAQDNTLTIQVGANDGETIDIDLKQINSQTLGLDSLNVQKAYDVKDTAVTTKAYANQGTTLDVSGLDDAAIKAATGGTQGTASVTGGAVKFDADNNKYFVTIGGFTGADAAKNGDYEVNVATDGTVTLAAGATKTTMPAGATTKTEVQELKDTPAVVSADAKNALIAGGVDATDANGAELVKMSYTDKNGKTIEGGYALKAGDKYYAADYDEATGAIKAKTTSYTAADGTTKTAANQLGGVDGKTEVVTIDGKTYQASKAAGHDFKAQPELAEAAAKTTENPLQKIDAALAQVDALRSDLGAVQNRFNSAITNLGNTVNQLSEARSRIEDSDYATEVSQMSRAQILQQAGTSVLAQANQVPQNVLSLLASGSGSGSSHNGKLCRLKGIAPLQLGKCNIAGWLLGNPECDPLLPVRSWSYIVETPNSENGICYPGDFIDYEELREQLSSVSSFERFEIFPKESSWPNHNTNGVTAACSHEGKSSFYRNLLWLTEKEGSYPKLKNSYVNKKGKEVLVLWGIHHPPNSKEQQNLYQNENAYVSVVTSNYNRRFTPEIAERPKVRDQAGRMNYYWTLLKPGDTIIFEANGNLIAPMYAFALSRGFGSGIITSQASMHECNTKCQTPLGAIQSSLPYQNIHPVTIGECPKYVRHHHHHH
  TLR activity (EC50, ng/ml); IL-8 secretion by HEK293 cells: 30 ng/mL
